Results as given in patent US20260055182A1.

Assays:
[1] = molecular target: human C1q purified protein (human) (UniProt P02745); assay: SPR (Biacore T200), C1q reversibly immobilised, antibody as analyte
[2] = molecular target: human FcRn / FCGRT&B2M (human) (UniProt P55899); assay: SPR (Biacore T200), pH 6.0, FcRn reversibly immobilised, antibody as analyte
[3] = molecular target: human FcyRIIA/CD32a (H167) (human) (UniProt P12318); assay: SPR (Biacore 8K+), receptor reversibly immobilised, antibody as analyte
[4] = molecular target: human FcyRIIIA/CD16a (V176) (human) (UniProt P08637); assay: as above
human FcyRI/CD64 (human) = human FcyRI/CD64 (human) (UniProt P12314); assay: as above
Sequence of human FcyRI/CD64 (human) (P12314 16-288 limits assumed): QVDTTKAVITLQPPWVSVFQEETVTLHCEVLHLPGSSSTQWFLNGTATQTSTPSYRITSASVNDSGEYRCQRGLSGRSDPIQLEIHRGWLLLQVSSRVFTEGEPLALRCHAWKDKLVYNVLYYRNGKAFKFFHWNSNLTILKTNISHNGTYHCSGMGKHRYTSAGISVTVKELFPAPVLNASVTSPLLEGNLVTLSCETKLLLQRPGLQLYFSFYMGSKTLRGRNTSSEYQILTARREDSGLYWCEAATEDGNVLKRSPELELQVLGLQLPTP

Sequence of human FcyRIIIA/CD16a (V176) (human) (P08637 17-208 F176V limits assumed): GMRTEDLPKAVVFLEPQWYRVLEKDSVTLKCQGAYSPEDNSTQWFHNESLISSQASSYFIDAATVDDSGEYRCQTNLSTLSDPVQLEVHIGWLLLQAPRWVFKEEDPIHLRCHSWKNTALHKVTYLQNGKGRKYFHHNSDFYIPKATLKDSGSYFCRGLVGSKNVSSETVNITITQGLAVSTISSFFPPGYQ
Sequence of human C1q purified protein (human) (P02745 23-245, chain 1 of 3): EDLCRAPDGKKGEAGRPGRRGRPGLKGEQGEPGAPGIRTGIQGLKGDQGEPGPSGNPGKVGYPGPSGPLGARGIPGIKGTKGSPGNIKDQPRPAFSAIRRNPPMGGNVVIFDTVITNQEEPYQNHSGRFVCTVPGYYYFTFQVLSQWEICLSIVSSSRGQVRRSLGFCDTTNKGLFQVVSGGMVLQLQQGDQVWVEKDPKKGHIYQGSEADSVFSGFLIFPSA
Sequence of human C1q purified protein (human) (P02746 28-253, chain 2 of 3, further chain): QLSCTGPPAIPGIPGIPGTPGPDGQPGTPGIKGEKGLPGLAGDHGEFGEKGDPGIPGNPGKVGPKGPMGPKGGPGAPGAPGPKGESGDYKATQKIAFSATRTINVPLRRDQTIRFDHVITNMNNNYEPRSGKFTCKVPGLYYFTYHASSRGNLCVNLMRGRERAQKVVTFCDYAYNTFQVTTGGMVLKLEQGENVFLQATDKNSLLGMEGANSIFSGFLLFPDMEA
Sequence of human C1q purified protein (human) (P02747 29-245, chain 3 of 3, further chain): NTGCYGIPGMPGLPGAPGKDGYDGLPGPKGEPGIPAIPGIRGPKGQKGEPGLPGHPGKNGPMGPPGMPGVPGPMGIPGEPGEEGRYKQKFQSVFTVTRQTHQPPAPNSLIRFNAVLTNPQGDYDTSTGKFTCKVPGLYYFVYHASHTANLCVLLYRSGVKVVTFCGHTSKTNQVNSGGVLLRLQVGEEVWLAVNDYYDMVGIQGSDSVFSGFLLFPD
Sequence of human FcyRIIA/CD32a (H167) (human) (P12318 36-218): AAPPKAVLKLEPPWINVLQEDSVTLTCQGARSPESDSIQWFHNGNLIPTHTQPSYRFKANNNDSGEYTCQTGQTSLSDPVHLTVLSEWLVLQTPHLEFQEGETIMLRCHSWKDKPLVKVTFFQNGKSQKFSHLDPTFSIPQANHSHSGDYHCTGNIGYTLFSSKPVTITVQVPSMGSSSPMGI

Kd [1]: 129 nM
Kd [2]: 384 nM
Kd [3]: 324 nM
Kd [4]: 57.9 nM
Kd (human FcyRI/CD64 (human)): 0.0407 nM
Substance: Mabthera (Rituximab) (antibody)
